{"source": "patent US20050266242A1", "target": "seed (assembled NM protein, preformed fibers used to seed fiber elongation in Example 10) (Saccharomyces cerevisiae) (UniProt P05453)", "sequence (P05453 1-253)": "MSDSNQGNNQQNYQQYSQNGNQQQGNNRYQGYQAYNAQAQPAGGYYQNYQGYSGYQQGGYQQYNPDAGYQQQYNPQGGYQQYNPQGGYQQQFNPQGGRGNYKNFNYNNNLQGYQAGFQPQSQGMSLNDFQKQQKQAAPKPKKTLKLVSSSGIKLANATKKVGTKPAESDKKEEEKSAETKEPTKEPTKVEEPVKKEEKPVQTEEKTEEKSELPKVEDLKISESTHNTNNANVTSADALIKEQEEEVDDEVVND", "experiment": "seeded fiber elongation, sedimentation and wavelength shift assays, Lineweaver-Burk plot", "data": [{"substance": "NM^T158C-acrylodan (from UniProt P05453 1-253) (other; other documents disagree on this pair)", "values": [{"measurement": "Km", "value": 0.12, "unit": "µM"}, {"measurement": "Vmax (maximal rate of conformational conversion)", "value": 0.001, "unit": "µmol/s"}, {"measurement": "kconf (rate constant of conformational conversion)", "value": 0.005, "unit": "s⁻¹"}, {"measurement": "kconf/Km (conformational conversion efficiency)", "value": 42000, "unit": "M⁻¹ s⁻¹"}]}]}
